Reference: US20040053368A1 (published 2004)

Biological target: T1, bovine serum albumin (BSA, Sigma) (bovine, UniProt P02769 25-607)
T1 construct: Control protein coated on the ELISA plate
Experiment: ELISA, serum albumin coated at 1 mg/ml, detected with anti-human FNCBD monoclonal antibody
Method: By the enzyme-linked immunosorbent assay (ELISA), binding ability of the FNCBD-bFGF and the FNCBD-EGF to bovine native collagen (I-AC, Koken), bovine atelocollagen (I-PC, Koken), and bovine serum albumin (BSA, Sigma) was evaluated.
First, 1 mg/ml solutions of native collagen, atelocollagen, and serum albumin were respectively dispensed in the wells of a flat-bottom 96-well ELISA plate at 200 μl/well, and the plate was allowed to stand overnight at 4° C.
The wells were washed three times with PBS containing 0.05% Tween 20, and 100 μl of anti-human FNCBD monoclonal antibody (Takara Shuzo) diluted 1:1000 was dispensed in the wells and allowed to stand at room temperature for 1 hour. The wells were washed three times with 0.05% Tween 20/PBS, and 100 μl of peroxidase-labelled anti-mouse immunoglobulin polyclonal antibody (Dako Japan) diluted 1:1000 was dispensed in the wells and allowed to stand at room temperature for 1 hour. After washing the wells 6 times with 0.05% Tween 20/PBS, 0.1M citrate buffer, pH 4.7 containing 1 mg/ml o-phenylenediamine and 0.03% hydrogen peroxide was dispensed in the wells and allowed to stand for 10 minutes. The reaction was then terminated by addition of 50 μl of 4N sulfuric acid and absorption at 492-690 nm was measured.

T1 sequence (P02769 25-607 limits assumed): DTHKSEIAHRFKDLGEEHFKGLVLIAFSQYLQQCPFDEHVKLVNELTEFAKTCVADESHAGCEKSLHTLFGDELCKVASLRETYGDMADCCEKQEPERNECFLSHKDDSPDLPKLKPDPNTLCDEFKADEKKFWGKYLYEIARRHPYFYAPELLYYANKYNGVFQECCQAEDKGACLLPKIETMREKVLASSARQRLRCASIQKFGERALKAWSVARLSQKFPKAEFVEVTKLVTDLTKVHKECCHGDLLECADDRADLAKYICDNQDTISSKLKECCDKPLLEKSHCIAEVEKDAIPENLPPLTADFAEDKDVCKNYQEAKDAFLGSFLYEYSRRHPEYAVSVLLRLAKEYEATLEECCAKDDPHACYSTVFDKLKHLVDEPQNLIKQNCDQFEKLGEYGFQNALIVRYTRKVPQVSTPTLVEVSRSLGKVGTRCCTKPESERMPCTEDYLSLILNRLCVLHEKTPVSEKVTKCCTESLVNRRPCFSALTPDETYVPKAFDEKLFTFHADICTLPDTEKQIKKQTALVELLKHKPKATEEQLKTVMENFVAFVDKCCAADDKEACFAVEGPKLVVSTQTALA

- binding result: no binding
B1: human FNCBD/human EGF hybrid polypeptide (FNCBD-EGF) (other)
chain: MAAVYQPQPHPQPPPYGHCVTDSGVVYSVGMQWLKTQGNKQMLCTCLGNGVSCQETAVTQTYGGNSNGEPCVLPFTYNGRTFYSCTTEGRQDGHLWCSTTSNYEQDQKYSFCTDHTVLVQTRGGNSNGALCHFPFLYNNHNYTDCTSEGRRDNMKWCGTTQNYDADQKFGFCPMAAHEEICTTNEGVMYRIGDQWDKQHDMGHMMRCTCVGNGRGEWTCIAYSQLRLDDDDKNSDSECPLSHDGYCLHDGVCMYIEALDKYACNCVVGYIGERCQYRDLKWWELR
notes: also called FN484-EGF; FNCBD/EGF hybrid polypeptide
